Where no end group is shown, it is not given here.
Key:
[1] = molecular target: p7 protein from the Hepatitis C virus (HCV) (Hepatitis C virus) (UniProt O39928); assay: cross-linking
[2] = molecular target: the molecule itself; assay: cross-linking
[3] = molecular target: transmembrane domain of Fas (Fas-TMD); assay: SDS-PAGE

Molecule: p7 protein from the Hepatitis C virus (HCV) (from UniProt O39928 748-810) (natural protein)
- stoichiometry N [1]: 6

Molecule: RSNLGWLCLLLLPIPLIVWVKRKEVQKT-His6 (domain or fragment, also: primary amines blocked with Sulfo-NHS Acetate) [Fas-TMD with a C-terminal His6-tag]
- stoichiometry N [2]: 3

Molecule: RSNLGWLCLLLLPIPLIVWVKRKEVQKT (domain or fragment, modifications not checked) [transmembrane domain of Fas (Fas-TMD)]
- stoichiometry N [3]: 3

— article PMC7238434 (Nature protocols, 2019)
